Article PMC4936896

Assays:
[1] = molecular target: truncated TRIM5α_(AGMpyg) that lacked the SPRY domain (African green monkey (Chlorocebus pygerythrus)); assay: SEC; final gel filtration step, HiLoad 16/600 Superdex 200 in 20 mM CHES, 100 nM ZnCl2, 1 mM TCEP, pH 10.0, 4°C; oligomer judged from retention time
[2] = molecular target: hyperstable HIV-1 cores (affinity-purified), as used for TRIM5α binding and imaging (HIV-1 (NL4-3)); assay: co-sedimentation; conditions: scale: CA per TRIM5α_(AGMpyg)
[3] = molecular target: hyperstable HIV-1 CA_(A14C,E45C) cores (HIV-1 (NL4-3)); assay: cross-linking

“truncated TRIM5α_(AGMpyg) that lacked the SPRY domain (domain or fragment)” was tested, and the stoichiometry N [1] was 2.

In the case of “African green monkey TRIM5α (Chlorocebus pygerythrus) (from UniProt Q5C8U4 1-515) (natural protein)”, the stoichiometry N [2] is reported as 7.

“hyperstable HIV-1 CA_(A14C,E45C) cores (complex)” gave a stoichiometry N [3] of 6.
